The results in this text go back to publication PMC9637774.

In data set [1] the target is T1, Dicer-1 (Dcr-1);Loqs-PB (Loquacious isoform PB) (Drosophila melanogaster;Drosophila …, UniProt Q9VCU9;Q9VJY9 1-2249;1-465, |). Description: cryo-EM structure.
Data set [2] addresses T1, Dicer-1 (Dcr-1);Loqs-PB (Loquacious …). Description: competition.
The target is the same in data set [3]. Description: cryo-EM structure. The source holds these as a separate data set.
Data set [4] has the same target. Nature of the data set: cryo-EM structure. The source holds these as a separate data set.

Residue numbers refer to the chain shown, from its start.

T1 sequence (Q9VCU9 whole entry, chain 1 of 2, canonical isoform): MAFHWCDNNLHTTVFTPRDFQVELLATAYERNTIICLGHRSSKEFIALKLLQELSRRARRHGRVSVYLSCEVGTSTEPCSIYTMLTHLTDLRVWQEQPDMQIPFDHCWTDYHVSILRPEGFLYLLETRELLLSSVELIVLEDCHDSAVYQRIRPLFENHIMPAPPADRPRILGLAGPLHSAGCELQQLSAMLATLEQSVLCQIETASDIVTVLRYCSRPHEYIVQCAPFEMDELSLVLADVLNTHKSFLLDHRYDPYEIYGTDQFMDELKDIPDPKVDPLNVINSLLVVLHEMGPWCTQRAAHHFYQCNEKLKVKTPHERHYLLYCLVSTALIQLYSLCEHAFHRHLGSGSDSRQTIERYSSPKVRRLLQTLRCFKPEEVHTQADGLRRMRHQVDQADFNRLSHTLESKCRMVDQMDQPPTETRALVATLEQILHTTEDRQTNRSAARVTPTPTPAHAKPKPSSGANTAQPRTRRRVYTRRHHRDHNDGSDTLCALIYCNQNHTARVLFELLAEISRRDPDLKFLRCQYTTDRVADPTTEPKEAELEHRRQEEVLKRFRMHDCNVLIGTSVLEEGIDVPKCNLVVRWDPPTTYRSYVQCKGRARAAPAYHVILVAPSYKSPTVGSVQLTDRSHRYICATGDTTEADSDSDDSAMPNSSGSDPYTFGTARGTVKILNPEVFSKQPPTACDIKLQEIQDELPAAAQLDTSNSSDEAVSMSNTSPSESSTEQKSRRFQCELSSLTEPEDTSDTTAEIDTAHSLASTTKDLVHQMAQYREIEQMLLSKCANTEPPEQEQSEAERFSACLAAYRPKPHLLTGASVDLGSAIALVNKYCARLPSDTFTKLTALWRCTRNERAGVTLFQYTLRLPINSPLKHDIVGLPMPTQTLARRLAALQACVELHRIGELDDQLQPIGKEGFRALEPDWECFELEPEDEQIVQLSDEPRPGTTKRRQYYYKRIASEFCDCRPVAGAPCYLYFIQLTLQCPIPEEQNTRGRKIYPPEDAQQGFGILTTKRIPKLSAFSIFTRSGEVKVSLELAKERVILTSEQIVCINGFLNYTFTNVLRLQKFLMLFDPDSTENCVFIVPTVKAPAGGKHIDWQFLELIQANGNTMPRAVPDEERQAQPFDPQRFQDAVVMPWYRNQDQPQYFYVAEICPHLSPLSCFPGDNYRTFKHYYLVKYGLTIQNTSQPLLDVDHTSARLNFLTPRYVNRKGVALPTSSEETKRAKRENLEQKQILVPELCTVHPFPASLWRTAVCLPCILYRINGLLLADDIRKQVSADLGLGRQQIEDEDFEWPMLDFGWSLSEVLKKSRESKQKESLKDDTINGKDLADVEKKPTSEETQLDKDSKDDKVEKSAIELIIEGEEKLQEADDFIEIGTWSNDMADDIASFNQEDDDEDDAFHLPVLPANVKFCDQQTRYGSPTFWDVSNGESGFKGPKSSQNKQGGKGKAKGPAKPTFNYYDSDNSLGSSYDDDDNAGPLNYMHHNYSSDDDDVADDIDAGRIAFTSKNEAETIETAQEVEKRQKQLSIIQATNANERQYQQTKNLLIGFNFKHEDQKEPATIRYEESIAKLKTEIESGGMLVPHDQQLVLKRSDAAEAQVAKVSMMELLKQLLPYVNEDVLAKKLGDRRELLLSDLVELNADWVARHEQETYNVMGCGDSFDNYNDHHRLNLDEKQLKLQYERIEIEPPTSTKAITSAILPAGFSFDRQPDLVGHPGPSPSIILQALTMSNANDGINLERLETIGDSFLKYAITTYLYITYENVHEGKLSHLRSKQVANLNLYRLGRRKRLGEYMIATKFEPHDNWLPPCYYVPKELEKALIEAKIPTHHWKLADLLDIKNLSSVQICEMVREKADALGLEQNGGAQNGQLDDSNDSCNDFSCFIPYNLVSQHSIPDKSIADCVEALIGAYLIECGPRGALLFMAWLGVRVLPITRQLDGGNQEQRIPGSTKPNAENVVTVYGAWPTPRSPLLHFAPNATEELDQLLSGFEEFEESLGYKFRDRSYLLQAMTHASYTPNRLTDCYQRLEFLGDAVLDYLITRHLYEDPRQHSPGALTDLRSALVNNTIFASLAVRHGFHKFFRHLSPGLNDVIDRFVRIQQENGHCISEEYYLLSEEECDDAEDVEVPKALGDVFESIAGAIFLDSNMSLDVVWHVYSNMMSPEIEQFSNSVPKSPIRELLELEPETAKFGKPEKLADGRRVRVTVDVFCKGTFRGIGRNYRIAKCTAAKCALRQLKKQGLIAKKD
T1 sequence (Q9VJY9 whole entry, chain 2 of 2, canonical isoform): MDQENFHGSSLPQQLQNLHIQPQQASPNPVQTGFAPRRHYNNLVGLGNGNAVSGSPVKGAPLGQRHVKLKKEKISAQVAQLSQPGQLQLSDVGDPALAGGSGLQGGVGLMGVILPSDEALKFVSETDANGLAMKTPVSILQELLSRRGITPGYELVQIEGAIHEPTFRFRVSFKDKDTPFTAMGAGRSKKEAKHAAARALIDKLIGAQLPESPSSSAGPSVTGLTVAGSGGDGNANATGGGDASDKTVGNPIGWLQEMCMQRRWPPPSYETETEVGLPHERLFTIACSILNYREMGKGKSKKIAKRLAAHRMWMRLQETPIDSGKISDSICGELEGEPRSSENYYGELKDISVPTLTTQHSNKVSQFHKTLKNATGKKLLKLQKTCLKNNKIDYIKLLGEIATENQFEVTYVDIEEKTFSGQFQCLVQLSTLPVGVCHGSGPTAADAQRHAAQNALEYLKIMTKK

B1: model pre-miRNA (structured_RNA)
RNA: UGAGGUAGUAGGUUGUAUAGUAGUAAUUACACAUCAUACUAUACAACCUACUACCUCUCU
modifications: 5' phosphate
For B1, the binding result in data set [1] is on record as “binds”.

B2: pre-let-7 (structured_RNA)
RNA: B1 RNA with C47U, C48G, A50G, C54G, C57U
modifications: 5' phosphate
Turning to B2, the binding result in data set [2] was “binds”.

B3: model miRNA/miRNA* duplex (dsRNA)
RNA 1: UGAGGUAGUAGGUUGUAUAGUA
RNA 2: CUAUACAACCUACUACCUCUCU
modifications: 5' phosphates
With B3, in data set [3], the binding result is listed as “binds”.

B4: nicked model pre-miRNA (5' arm cleaved) (structured_RNA)
RNA 1: UGAGGUAGUAGGUUGUAUAGUA
RNA 2: GUAAUUACACAUCAUACUAUACAACCUACUACCUCUCU
modifications: 5' phosphate
Consider B4, for which the binding result in data set [4] is “binds”.
